Measurements taken from US20120171209A1 (Ablynx, published 2012).
Numbering of substitutions follows the chain as printed.

T1: human soluble IL-6R, recombinant (human, UniProt P08887 20-358)
T1 construct: also called human IL6-R; bio-IL-6R
T1 sequence (looked up): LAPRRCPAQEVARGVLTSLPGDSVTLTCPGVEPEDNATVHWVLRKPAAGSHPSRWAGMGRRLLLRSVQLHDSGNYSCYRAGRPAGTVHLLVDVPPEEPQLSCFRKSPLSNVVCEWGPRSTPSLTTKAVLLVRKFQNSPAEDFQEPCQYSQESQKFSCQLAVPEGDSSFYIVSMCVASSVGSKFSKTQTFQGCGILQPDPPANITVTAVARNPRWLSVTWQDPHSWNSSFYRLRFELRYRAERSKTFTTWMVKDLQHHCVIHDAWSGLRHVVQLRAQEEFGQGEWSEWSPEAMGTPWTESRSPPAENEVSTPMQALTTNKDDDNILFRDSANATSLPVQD

T2: hybrid IL-6R (human, with rat sequence in domain I)
T2 construct: produced in HEK.EBNA cells and purified
T2 chain: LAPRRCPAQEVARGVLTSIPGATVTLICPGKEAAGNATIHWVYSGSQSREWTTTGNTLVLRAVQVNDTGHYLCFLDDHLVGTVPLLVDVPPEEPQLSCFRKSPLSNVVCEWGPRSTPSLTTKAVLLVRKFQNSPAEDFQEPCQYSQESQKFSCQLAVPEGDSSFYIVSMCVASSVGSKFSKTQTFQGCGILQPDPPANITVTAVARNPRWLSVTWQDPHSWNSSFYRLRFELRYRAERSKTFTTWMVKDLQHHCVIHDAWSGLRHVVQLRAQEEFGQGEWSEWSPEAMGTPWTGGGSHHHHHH

T3: cyno IL-6R on CHO-K1 cells, clone CyIL6R 405 (cynomolgus monkey (extracellular domain), UniProt A0A2K5WN54 60-499)
T3 construct: whole, on cells; chimeric construct on cells; also called CHO K1-cynomolgous IL-6R
T3 sequence: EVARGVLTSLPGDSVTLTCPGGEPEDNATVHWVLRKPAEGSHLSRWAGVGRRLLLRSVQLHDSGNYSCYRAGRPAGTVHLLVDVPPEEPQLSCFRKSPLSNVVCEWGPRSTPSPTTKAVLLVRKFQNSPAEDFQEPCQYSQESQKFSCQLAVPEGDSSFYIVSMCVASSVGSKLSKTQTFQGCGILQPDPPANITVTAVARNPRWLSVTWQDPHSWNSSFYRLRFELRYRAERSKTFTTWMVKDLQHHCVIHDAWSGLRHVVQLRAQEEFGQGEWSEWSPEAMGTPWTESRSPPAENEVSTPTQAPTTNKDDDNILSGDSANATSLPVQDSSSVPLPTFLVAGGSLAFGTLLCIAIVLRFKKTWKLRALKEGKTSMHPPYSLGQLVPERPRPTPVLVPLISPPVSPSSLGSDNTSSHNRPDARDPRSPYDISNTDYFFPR

B1: IL6RPMP103C4 (VHH)
VHH: EVQLVESGGGLVEAGGSLRLSCAAAGRTLSSYSMAWFRQAPGKEREFVAIIRGNPSRTYHSDSVKGRFTASRDNAKNTVYLQMNRLEPEDTAVYYCAADPPPFASDYSAPQSYDYWGQGTQVTVSS
notes: family 19; also called IL6R103C4
B2: IL6RPMP103H9 (VHH)
VHH: EVQLVESGGGLVQPGGSLRLSCAASKSIFDINAMYWHRQAPGKQRESVASITSGGMRNYADSVKDRFTISKDNAKNTVYLQMNGLKPDDTAVYYCGLGRYEGGVWRDYWGQGTQVTVSS
notes: family 13; also called PMP103H09; IL6R103H9
B3: IL6RPMP107A1 (VHH)
VHH: EVQLVESGGGLVQAGGSLNLSCNASGDIGSINAMGWYRQAPGQQREWVAVITDTDSTIYPDSVKGRFAISRDGAKNTVHLRMSSLKPEDTAVYYCNAYQAGWGDYWGQGTQVTVSS
notes: also called IL6R107A1
B4: IL6RPMP104E4 (VHH)
VHH: EVQLVESGGGTVQAGGSLKLSCAASGRTFTNYAMGWFRQAPGKEREFVAAIAYATHFADSVKGRFTISRGNAKNTVYLQMNSLKPEDTAVYYCAADLSLSKMVSKITSDMDYWGKGTLVTVSS
notes: family 8; also called PMP104E04; IL6R104E4
B5: IL6RPMP108E1 (VHH)
VHH: EVQLVESGGGLVQAGGSLRLSCAASGFTFDDYDIGWFRQAPGKEREGVSGISSSDGNTYYADSVKGRFTISSDNAKNTVYLQMNSLKPEDTAVYYCAAEPPDSSWYLDGSPEFFKYWGQGTQVTVSS
notes: family 20; also called PMP108E01
B6: IL6RPMP105E1 (VHH)
VHH: EVQLVESGGGLVQAGGSLRLSCAASGSIFSIKAMGWYRQAPGKQRELVARITSGGSTYYADSVKGRFTISRDNAKNTVYLQMNSLKPEDTAVFYCNAIVTDSDYDLGNDYWGQGTQVTVSS
notes: family 7; also called PMP105E01; IL6R105E1
B7: IL6RPMP107A9 (VHH)
VHH: EVQLVESGGGLVQAGGSLRLSCAASGGIFSDMFMGWFRQAPGKSRESVARISPSGNTFYQDSVRGRFTISTDNAKNTVYLQMNNLKPEDTAVYYCAANVGVTGSYEYWGQGTQVTVSS
notes: family 21; also called IL6R107A9
B8: IL6RPMP107H2 (VHH)
VHH: KVQLVESGGGLVQPGGSLRLSCAASGFTFSSYAMSWVRRAPGKGLEWVSAINSDGTGSSYAPFVTGRFTASRDNAKNTLYLQMNSLKPEDTAVYYCTNSNRYDYADFSAVRGQGTQVTVSS
notes: family 27; also called IL6R107H2
B9: IL6RPMP101B12 (VHH)
VHH: EVQLVESGGGLVQPGGSLRLSCAASGVTLDYYAIGWFRQAPGKEREGVSSISSNDGSTFYADSVKGRFTISRDKAKNTVYLQMNSLKPEDTAVYYCAATYLTAQAVGVPVAYYEFDYWGQGTQVTVSS
notes: family 2; also called IL6R101B12
B10: IL6RPMP120A5 (VHH)
VHH: EVQLVESGGGLVQAGGSLSLSCATSGRTISDDTMAWFRQAPGKEREFVAIITFNGARTHYSDSVRDRFTISRDNAKNTVYLQMNSLKSEDTAVYYCAASTKYYSSTYNYIHPAFYDIWGQGTQVTVSS
notes: family 28; also called IL6R120A5
B11: IL6RPMP103C7 (VHH)
VHH: B10 VHH with I50T, N54S, N84D
notes: family 28
B12: reference Fab (Fab, V domains shown)
VH: QVQLQESGPGLVRPSQTLSLTCTVSGYSITSDHAWSWVRQPPGRGLEWIGYISYSGITTYNPSLKSRVTMLRDTSKNQFSLRLSSVTAADTAVYYCARSLARTTAMDYWGQGSLVTVSS
VL: DIQMTQSPSSLSASVGDRVTITCRASQDISSYLNWYQQKPGKAPKLLIYYTSRLHSGVPSRFSGSGSGTDFTFTISSLQPEDIATYYCQQGNTLPYTFGQGTKVEIKR
notes: expressed in the periplasm of E. coli

Each binder was assayed against T1, human soluble IL-6R, recombinant (assay: Biacore, periplasmic extract).
Description: Periplasmic extracts of representative family clones were also analyzed on Biacore. Dissociation curves were used to calculate koff rates. koff rates are depicted in Table C-6.

Binder | koff [s⁻¹]
B1 | 0.001
B2 | 0.01
B3 | 0.00075
B4 | 0.00075
B5 | 0.0001
B6 | 0.00041
B7 | 0.01
B8 | 0.0001

Molecular target: T2, hybrid IL-6R
Test: sandwich ELISA, coated hybrid IL-6R, anti-myc-HRP detection
Description: The panel of purified Nanobodies was tested by standard sandwich ELISA with coated human IL-6R versus hybrid IL-6R (see Example 3). Anti-myc-horseradish peroxidase (AbD Serotec, Oxford, UK) was used as a detection antibody. Only Nanobodies with koff rates that were low enough to give a positive signal towards human IL-6R are depicted.

Binder | binding result
B9 | no binding
B4 | no binding

The binders below were run against T3, cyno IL-6R on CHO-K1 cells, clone … (assay: FMAT on CHO cells, competitor labelled Reference IgG).
Description: Eleven inhibitory Nanobodies were tested in competition with labelled Reference IgG for binding to
CHO cells expressing hIL-6R or cynoIL-6R.

Binder | IC50 [nM]
B1 | 30
B10 | 27
B11 | 75
B12 | 0.8
B6 | 13

What follows are binders tested against cynomolgus IL-6R used in Biacore (cynomolgus monkey) (assay: Biacore, periplasmic extract).

Binder | koff [s⁻¹]
B1 | 0.001
B2 | 0.01
B3 | 0.01
B4 | 0.00045
B5 | 0.001
B6 | 0.001
B7 | 0.01

The binders below were run against IL-6R on the surface of TF-1 cells (UniProt P08887) (assay: cell-based or functional assay).
IL-6R on the surface of TF-1 cells, sequence (P08887 20-468 limits assumed): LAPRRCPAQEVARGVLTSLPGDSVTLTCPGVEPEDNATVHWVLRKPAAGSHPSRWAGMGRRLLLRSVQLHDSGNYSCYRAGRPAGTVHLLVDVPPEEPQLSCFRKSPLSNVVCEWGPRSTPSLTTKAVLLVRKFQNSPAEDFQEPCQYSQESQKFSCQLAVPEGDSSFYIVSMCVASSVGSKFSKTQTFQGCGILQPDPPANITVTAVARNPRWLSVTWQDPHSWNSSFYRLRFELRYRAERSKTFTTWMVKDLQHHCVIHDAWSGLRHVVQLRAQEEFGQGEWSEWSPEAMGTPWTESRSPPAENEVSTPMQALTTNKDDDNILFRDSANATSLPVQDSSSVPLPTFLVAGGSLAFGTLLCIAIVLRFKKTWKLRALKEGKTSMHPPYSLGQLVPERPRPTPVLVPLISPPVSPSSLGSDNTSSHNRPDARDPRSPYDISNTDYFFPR

Binder | IC50, IL-6-dependent proliferation of TF-1 cells [nM]
B1 | 15.6
B2 | 1470
B10 | 5.59
B11 | 61.3
B3 | 4.05
B5 | 0.149
B6 | 6.2
B7 | 349

What follows are binders tested against cynomolgus soluble IL-6R, native, in cynomolgous plasma (cynomolgus monkey) (assay: ELISA 2, cyno plasma sIL-6R, periplasmic extract, competitor IL-6).

Binder | OD450 ratio sample/blank
B8 | 0.6
